According to US8987424B2, “CA6 antigen-specific cytotoxic conjugate and methods of using the same” (ImmunoGen, Inc., priority 2003, dated 2015):

B1: DS6-DM1: muDS6 antibody modified with SPP and conjugated to the maytansinoid DM1 (conjugate)
VH: QAYLQQSGAELVRSGASVKMSCKASGYTFTSYNMHWVKQTPGQGLEWIGYIYPGNGATNYNQKFKGKATLTADPSSSTAYMQISSLTSEDSAVYFCARGDSVPFAYWGQGTLVTVSA
VL: QIVLTQSPAIMSASPGEKVTITCSAHSSVSFMHWFQQKPGTSPKLWIYSTSSLASGVPARFGGSGSGTSYSLTISRMEAEDAATYYCQQRSSFPLTFGAGTKLELKR
B2: DS6: murine anti-CA6 monoclonal antibody DS6 (ATCC deposit number PTA-4449) (antibody, V domains shown)
VH: B1 VH
VL: B1 VL

Experiments:
[1] = tested on: BT-20 cells; assay: MTT cell viability assay; format: cell-based, human; details: highest conjugate concentration (32 nM)
Procedure: (§1) In the MTT assay, cells were seeded in 96-well plates at a density of 1000-5000 cells/well. The cells were plated with serial dilutions of either naked muDS6 or muDS6-DM1 immunoconjugate in 200 μl of culture media. The samples were run in triplicate. The cells and antibody/conjugate mixtures were then incubated for 2-7 d, at which time cell viability was assessed by an MTT ([3(4,5-dimethylthiazol-2-yl)-2,5-diphenyl tetrazolium bromide)] assay. MTT (50 μg/well) was added to the culture supernatant and allowed to incubate for 3-4 h at 37° C. The media was removed and the MTT formazan was solubilized in DMSO (175 μl/well). The absorbance at 540-545 nm was measured. […] The wells with the highest concentrations of conjugate contained no viable cells as compared to naked antibody which had no effect (FIGS. 21 and 24).

[2] = tested on: HPAC cells; assay: MTT cell viability assay; format: cell-based, human; details: highest conjugate concentration (32 nM)
Procedure: as §1

[3] = tested on: OVCAR5 cells; assay: MTT cell viability assay; format: cell-based, human; details: highest conjugate concentration (32 nM)
Procedure: as §1

[4] = tested on: KB tumor xenografts; assay: Subcutaneous KB tumor xenograft efficacy study; format: in vivo, SCID mice
Procedure: Tumor cells were inoculated on day 0, and the first treatment was given on day 6. Immunoconjugate treatments continued daily for a total of 5 doses. PBS control animals were euthanized once tumor volumes exceeded 1500 mm^3. The conjugate was given at a dose of 150 or 225 μg/kg DM1, corresponding to antibody concentrations of 5.7 and 8.5 mg/kg respectively. The body weights (FIG. 25B) of the mice were monitored during the course of the study.
A subcutaneous model of the human cervical carcinoma cell-line, KB, was developed. KB cells were grown in vitro, collected, and 5×10^6 cells in a 100 μL of serum free medium were injected under the right shoulder of each mouse and allowed to grow for 6 days to an average tumor volume of 144±125 mm^3 at which time drug treatment was initiated. Mice were given either PBS, conjugate at 150 μg/kg DM1, or conjugate at 225 μg/kg DM1 (2 mice per group) intravenously every day for 5 days. Toxic responses were monitored daily during the treatment. Tumor volumes (FIG. 25A) and corresponding body weights (FIG. 25B) were monitored throughout the study.

[5] = tested on: HPAC tumor xenografts; assay: Subcutaneous HPAC xenograft efficacy study; format: in vivo, SCID mice
Procedure: (§2) OVCAR5 (FIG. 26A and FIG. 26B), TOV-21 G (FIG. 26C and FIG. 26D), HPAC (FIG. 26E and FIG. 26F), and HeLa (FIG. 26G and FIG. 26H) cells were inoculated on day 0, and immunoconjugate treatments were given on day 6 and 13. PBS control animals were euthanized once tumor volumes exceeded 1000 mm^3. The conjugate was given at a dose of 600 μg/kg DM1, corresponding to an antibody concentration 27.7 mg/kg. Tumor volume (FIG. 26A, FIG. 26C, FIG. 26E, and FIG. 26G) and body weight (FIG. 26B, FIG. 26D, FIG. 26F, and FIG. 26H) of the mice were monitored during the course of the study.
(§3) muDS6-DM 1 activity was further tested on a panel of subcutaneous xenograft models (see FIG. 26). […] OVCAR5 cells and TOV-21 G are ovarian tumor cell lines; HPAC is a pancreatic tumor cell line; HeLa is a cervical tumor cell line. OVCAR5 and TOV-21G cells have low surface CA6 expression; HeLa cells have an intermediate level of surface CA6 expression; HPAC cells have a high CA6 density of surface expression. TOV-21G and HPAC cells are maytansine sensitive; OVCAR5 and HeLa cells are 2-7-fold less maytansine sensitive.
(§4) The 4 cell-lines were grown in vitro, collected, and 1×10^7 cells in a 100 μL of serum free medium were injected under the right shoulder of each mouse (6 mice per model) and allowed to grow for 6 days to an average tumor volume of 57.6±6.7 and 90.2±13.4 mm^3 for the test and control groups respectively of OVCAR5, 147.1±29.6 and 176.2±18.9 mm^3 for the test and control groups respectively of HPAC, 194.3±37.2 and 201.7±71.7 mm^3 for the test and control groups respectively of HeLa, and 96.6±22.8 and 155.6±13.4 mm^3 for the test and control groups respectively of TOV-21G, at which time drug treatment was initiated. For each model three control mice were treated with two weekly doses of PBS and three test mice were treated with two weekly doses of conjugate (600 μg/kg DM1) intravenously. Toxic responses were monitored daily during the treatment and tumor volumes and body weights were monitored throughout the study. […]

[6] = tested on: HeLa tumor xenografts; assay: Subcutaneous HeLa xenograft efficacy study; format: in vivo, SCID mice
Procedure: as §2, §3, §4

[7] = tested on: OVCAR5 IP tumors; assay: Intraperitoneal OVCAR5 tumor model; format: in vivo, SCID mice; details: 600 μg/kg DM1 weekly for 2 weeks
Procedure: Tumor cells were injected intraperitoneally on day 0, and immunoconjugate treatments were given on day 6 and 13. Animals were euthanized once body weight loss exceeded 20%.
Human ovarian cancer is largely a disease of the peritoneum. OVCAR5 cells grow aggressively as an intraperitoneal (IP) model in SCID mice forming tumor nodules and producing ascites in a manner similar to human disease. […] OVCAR5 cells were grown in vitro, harvested and 1×10^7 cells in 100 μL of serum free medium were injected intraperitoneally. Tumors were allowed to grow for 6 days at which time treatment was initiated. Mice were treated weekly for 2 weeks with either PBS or DS6-DM1 conjugate at a dose of 600 μg/kg DM1 and monitored for weight loss resulting from peritoneal disease. By day 28, the PBS group of mice had lost greater than 20% body weight and were euthanized. The treated group was sacrificed at day 45 after exceeding 20% body weight loss.

[8] = tested on: Caov-3 cells; assay: MTT cell viability assay; format: cell-based, human
Procedure: as §1

[9] = 150 μg/kg DM1 i.v. daily for 5 days
[10] = 600 μg/kg DM1, two weekly doses
[11] = 600 μg/kg DM1 i.v., two weekly doses

| Molecule | cells still viable [1] | cells still viable [2] | cells still viable [3] | body weight ([4]; 150 μg/kg DM1) | time to complete tumor regression after treatment initiation [4, 9] [days] | tumor delay [4, 9] | treatment outcome ([4]; 225 μg/kg DM1, no tumor recurrence at day 120) | time to complete tumor regression after treatment initiation ([4]; 225 μg/kg DM1 i.v. daily for 5 days) [days] | visible signs of toxicity ([4]; during the 5-day treatment course, 150 and 225 μg/kg DM1) | body weight [5, 10] | tumor status at day 61 [5, 10] | tumor regression [5, 11] | body weight [6, 10] | tumor status at day 61 [6, 10] | tumor regression [6, 11] | tumor growth delay (in words) [7] | visible signs of toxicity [7] | day of sacrifice after exceeding 20% body weight loss ([7]; PBS group day 28) [days] | effect of naked antibody on cell viability [8] |
| --- | --- | --- | --- | --- | --- | --- | --- | --- | --- | --- | --- | --- | --- | --- | --- | --- | --- | --- | --- |
| B1 | over 50% | over 50% | over 50% | no weight loss | 18 | approximately 70 days | cures | 14 | no visible signs of toxicity | no weight loss was observed | tumor-free | complete tumor regression in all mice | no weight loss was observed | tumor-free | complete tumor regression in all mice | able to delay tumor growth | no visible signs of toxicity | 45 |  |
| B2 |  |  |  |  |  |  |  |  |  |  |  |  |  |  |  |  |  |  | no effect |
